# Measurements reported in patent publication US20100040633A1 (published 2010).
# T1: TGF-beta 3 (human, UniProt P10600 301-412)
# T1 construct: Bought protein; also called TGF-β3
# T1 sequence (looked up): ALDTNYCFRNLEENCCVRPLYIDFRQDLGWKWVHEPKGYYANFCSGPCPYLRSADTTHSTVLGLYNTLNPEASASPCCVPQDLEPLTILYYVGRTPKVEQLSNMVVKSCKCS
# Molecular target: T1, TGF-beta 3
# Experiment: ratio of Biacore Kd for TGF-β3 to Kd for TGF-β1
# Experimental: Affinities of binding composition mAbs for TGF-β3 are determined using BIAcore methods. All measurements are performed at room temperature. Samples are dissolved in HBS-EP buffer (150 mM sodium chloride, 3 mM EDTA, 0.01% (w/v) surfactant P-20, and 10 mM HEPES, pH 7.4). Recombinant Protein A is immobilized on four flow cells of a CM4 sensor chip at a level of 400-450 response units (RUs) using an amine coupling kit. Binding is evaluated over multiple analytical cycles. Each cycle is performed at a flow rate of 100 μL/minute consisting of the following steps: injection of 15 μL of an antibody binding composition at 0.5 μg/mL, injection of 250 μL of TGF-β3 (starting at 5 nM and using two-fold serial dilutions to […] for each cycle, with two injections for each concentration) followed by a short (5 minutes) delay for dissociation, and regeneration using two injections of 50 μL of 10 mM glycine hydrochloride, pH 1.5.
# Affinities are determined based upon the equilibrium signal as reached at varying TGF-β3 concentrations by measuring the average signal during the last 10 seconds of the TGF-β3 injections, and then fitting the resulting signals at all of the TGF-β3 concentrations to a simple binding equilibrium model in SCRUBBER (Center for Biomolecular Interaction Analysis, Univ. of Utah). Model data determined for tested human mab composition of the invention of Kd and specificity calculated by dividing the Kd for TGF-β3 binding by the Kd for TGF-β1 binding (herein) is shown below in Table 5.
row,Binder,"Specificity (Kd, β3/Kd, β1)"
1,"mAb 21D1 (antibody, human IgG4 S228P, kappa, V domains shown, Full-length IgG4 antibody; also called LA307-21D1) VH: QVQLVQSGAEVKKPGASVKVSCKASGYTFTDYNIHWVRQAPGQGLEWMGYIYPYDGETGYNQKFKSRVTMTTDTSTSTAYMELRSLRSDDTAVYYCARGYRWFAYWGQGTLVTVSS VL: DIQMTQSPSSLSASVGDRVTITCRASSSVPYMHWFQQKPGKAPKSLIYATSNPAYGVPSRFSGSGSGTDFTLTISSLQPEDFATYYCQQWDLNPPAFGQGTKLEIKR",9800
2,"mAb DM4 (antibody, human IgG4 S228P, kappa, V domains shown, Full-length IgG4 antibody; also called LA307-DM4) VH: QVQLVQSGAEVKKPGASVKVSCKASGYDFTDYNIHWVRQAPGQGLEWMGYIYPYDGETGYNQKFKSRVTMTTDTSTSTAYMELRSLRSDDTAVYYCARGYRWLAYWGQGTLVTVSS VL: DIQMTQSPSSLSASVGDRVTITCRASSSVSYMHWYQQKPGKAPKPLIYATSNLAYGVPSRFSGSGSGTDFTLTISSLQPEDFATYYCQQWDLNPPAFGQGTKLEIKR",621
3,"mAb 23A3 (antibody, V domains shown) VH: QVQLVQSGAEVKKPGASVKVSCKASGYDFTDYNMVWVRQAPGQGLEWMGSIYPYDGETGYNQKFKSRVTMTTDTSTSTAYMELRSLRSDDTAVYYCARGYRAFEYWGQGTLVTVSS VL: DIQMTQSPSSLSASVGDRVTITCRASSSVPYMHWYQQKPGKAPKLLIYATSNPAYGVPSRFSGSGSGTDFTLTISSLQPEDFATYYCQQWDLNPPAFGQGTKLEIK",1050
4,"mAb DM7 (antibody, V domains shown) VH: QVQLVQSGAEVKKPGASVKVSCKASGYDFTDYNMHWVRQAPGQGLEWMGYIYPYDGETGYNQKFKSRVTMTTDTSTSTAYMELRSLRSDDTAVYYCARGYRWLYYWGQGTLVTVSS VL: DIQMTQSPSSLSASVGDRVTITCRASSSVSYMHWYQQKPGKAPKPLIYATSNLAKGVPSRFSGSGSGTDFTLTISSLQPEDFATYYCQQWDLNPPAFGQGTKLEIK",2320
